Data as given in patent US20090286723A1.

T1: CGRP receptors (SK-N-MC cell membranes), Q16602
T1 chain 1: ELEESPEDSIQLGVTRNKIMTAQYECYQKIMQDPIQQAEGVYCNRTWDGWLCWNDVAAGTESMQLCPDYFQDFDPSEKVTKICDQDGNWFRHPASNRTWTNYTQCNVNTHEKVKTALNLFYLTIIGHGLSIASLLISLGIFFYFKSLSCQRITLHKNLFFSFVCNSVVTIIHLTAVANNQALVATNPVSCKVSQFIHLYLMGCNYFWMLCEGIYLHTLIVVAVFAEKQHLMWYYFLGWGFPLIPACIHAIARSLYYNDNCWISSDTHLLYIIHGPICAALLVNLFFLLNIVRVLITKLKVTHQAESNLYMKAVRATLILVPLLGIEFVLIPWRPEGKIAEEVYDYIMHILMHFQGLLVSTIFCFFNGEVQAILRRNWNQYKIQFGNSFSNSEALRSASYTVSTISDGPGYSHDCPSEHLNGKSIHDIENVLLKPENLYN
T1 chain 2: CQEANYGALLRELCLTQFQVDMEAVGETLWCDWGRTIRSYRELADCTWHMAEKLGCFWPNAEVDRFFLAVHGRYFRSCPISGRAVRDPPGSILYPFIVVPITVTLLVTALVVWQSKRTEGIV

T2: amylin receptors (rat nucleus accumbens membranes) (rat)
T2 chain 1: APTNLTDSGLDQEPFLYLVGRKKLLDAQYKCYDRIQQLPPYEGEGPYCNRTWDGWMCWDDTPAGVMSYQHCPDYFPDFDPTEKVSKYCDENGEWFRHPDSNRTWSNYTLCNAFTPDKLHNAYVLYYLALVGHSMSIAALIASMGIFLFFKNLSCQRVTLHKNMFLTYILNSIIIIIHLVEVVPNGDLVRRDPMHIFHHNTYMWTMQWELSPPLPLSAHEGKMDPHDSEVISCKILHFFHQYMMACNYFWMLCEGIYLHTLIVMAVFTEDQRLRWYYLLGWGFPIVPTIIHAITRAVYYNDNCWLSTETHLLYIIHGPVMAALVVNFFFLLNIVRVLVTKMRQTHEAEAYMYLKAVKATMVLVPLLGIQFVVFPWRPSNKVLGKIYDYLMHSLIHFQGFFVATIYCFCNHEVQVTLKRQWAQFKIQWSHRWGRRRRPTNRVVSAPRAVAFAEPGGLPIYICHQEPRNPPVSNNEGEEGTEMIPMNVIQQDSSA
T2 chain 2: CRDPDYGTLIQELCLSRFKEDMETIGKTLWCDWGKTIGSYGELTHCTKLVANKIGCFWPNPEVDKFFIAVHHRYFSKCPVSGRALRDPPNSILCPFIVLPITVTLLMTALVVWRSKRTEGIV

T3: neuropeptide Y2 receptor (SK-N-BE cell membranes), P49146
T3 chain: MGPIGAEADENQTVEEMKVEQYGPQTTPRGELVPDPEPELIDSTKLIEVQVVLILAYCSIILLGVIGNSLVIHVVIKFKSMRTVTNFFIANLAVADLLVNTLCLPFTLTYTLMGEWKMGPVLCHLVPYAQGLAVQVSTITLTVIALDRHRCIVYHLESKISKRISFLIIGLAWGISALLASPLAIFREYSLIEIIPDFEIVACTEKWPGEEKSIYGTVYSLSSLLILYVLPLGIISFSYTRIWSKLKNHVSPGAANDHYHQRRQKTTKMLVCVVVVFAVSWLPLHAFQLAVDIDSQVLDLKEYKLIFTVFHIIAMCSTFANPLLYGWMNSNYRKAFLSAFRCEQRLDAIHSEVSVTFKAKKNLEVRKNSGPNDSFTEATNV


Assays:
[1] = target: T1, CGRP receptors (SK-N-MC cell …); experiment: 125I-hCGRP displacement, SK-N-MC membranes
[2] = target: GLP-1/GIP/CT (receptors read by the GLP-1/GIP/CT cyclase assay); experiment: cell-based or functional assay
[3] = target: T2, amylin receptors (rat nucleus accumbens …); experiment: amylin receptor binding assay
[4] = target: T3, neuropeptide Y2 receptor (SK-N-BE cell …); experiment: [125I]-human PYY displacement, SK-N-BE membranes
calcitonin receptor = experiment: cell-based or functional assay
[5] = target: amylin receptors (rat nucleus accumbens membranes) (rat); experiment: 125I-amylin displacement, rat nucleus accumbens membranes

calcitonin receptor, sequence (P30988 whole entry): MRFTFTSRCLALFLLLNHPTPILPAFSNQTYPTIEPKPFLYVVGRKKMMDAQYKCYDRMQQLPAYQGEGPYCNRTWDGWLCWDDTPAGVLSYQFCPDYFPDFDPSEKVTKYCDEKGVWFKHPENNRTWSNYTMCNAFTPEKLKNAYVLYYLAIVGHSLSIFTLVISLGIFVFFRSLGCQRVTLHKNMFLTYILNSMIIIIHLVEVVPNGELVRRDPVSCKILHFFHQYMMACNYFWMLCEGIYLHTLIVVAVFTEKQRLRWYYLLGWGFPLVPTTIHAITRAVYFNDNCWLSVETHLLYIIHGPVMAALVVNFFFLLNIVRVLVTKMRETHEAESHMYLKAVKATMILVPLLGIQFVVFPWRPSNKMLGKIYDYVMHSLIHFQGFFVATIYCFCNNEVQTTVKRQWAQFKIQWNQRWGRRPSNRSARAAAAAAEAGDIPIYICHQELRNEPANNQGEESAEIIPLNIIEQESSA

Binder | Receptor Binding [1] | Receptor Activation: GLP-1/GIP/CT cyclase [2] | Receptor Binding [4] | Receptor Activation: CT cyclase (calcitonin receptor) | other results
DFMGWMDFGKRKCNTATCATQRLANELVRLQTYPRTNVGSNTY (modifications not checked) [27(p-CH2SO3)-PheCCK8(26-33),G,K,R,15Glu,hAmy(1-17),18Arg,Sct(18-26),hAmy(32-37)] | 4.4 | 1000 | – | – | –
DFMGWMDFGKRKCNTATCATQRLANELVRLQTYPRTNVGSNTY (modifications not checked) [DF(P-CH2SO3)… …] | – | – | – | – | IC50 [3]: 0.083 nM
[#Mal-Bu-(bAla)-PYY-(3-36), amide] [#S-Prp-(bAla)-Compound 10, amide] (modifications not checked) chain 1: not shown chain 2: […] | – | – | 0.2 | – | –
[#Suc-(bAla)-PYY-(3-36), amide] [#NH-Des-Lys1-Rat Amylin, amide] (modifications not checked) chain 1: not shown chain 2: CNTATCATQRLANFLVRSSNNLGPVLPPTNVGSNTY | – | – | 0.39 | 645 | –
KCNTATCATQRLANFLVRSSNNLGPVLPPTNVGSNTY (modifications not checked) [Rat amylin] | 21 | 5 | – | 326 | Receptor Binding [5]: 0.05
